assay: soluble on expression in E. coli; label from the status in PepcDB or PDB records

| Sequence | soluble on expression in E. coli |
| --- | --- |
| MFSPVKSTKVYEQIIEQFKIMIANGTLKKGDKLPSERELVSQLGVSRASIREALSALQMIGFVEARHGEGNFIRENFEESLIDPFLLIFMLNGSNKEQILELRRIIEVETAALAAKKITDEEVKELEVCLENLTEAENETLKGKYDKKFHYNIAKASKNILIVNMLNAVSSLMDSFISEARGRILMVEDNKNVLMKQHRSMLEALKNHDSKAASNAMSEHLDLIYEYIIKK | not soluble |
| MFSQWVFLSVLALAVPSFAWAEDAVSDLAREQSKAEQGDKRGDELFAEFTRLRQAAETGEPQALFDFGAYFYQQQNYASAREWWGKAAAAGMVRAQIQLAMLYRDGDGGPQDKTEAARWFRKAAEQGDAAAQNEMGVLYWRGEGVDQDRVKAGTWFERAAASGSEDAETNLGWFYLDDSQGVYSATSDEEAALLDRYAGSREKAFQWFCKAATQGDARAQFKVGEAYWNGSGAGMNKLQARLWLEKAAQQQDADAIAWLESAANAAWYTRLENWIHAALDGELSGVADCSGAADRRHSGRGMEGAPSDPEAVEASAEDAQQAVEAASQ | not soluble |
| MFSRDRVAYTDLTVNSACDDLFPGVEDVDAQATLQLRAALDAFEEGVFEYHNRASQAGEADAGKHSARGGGQRRTRREKIYASRIPEDRQFFRPVDQQSAEWAAFKPHLWLRGRRIHSADAAAHAGQHHHLHHHTPAGAPQAQQPALAASPVHAGAGLPAGTAGAGADAGAGAGTGAGLELRGTRAVLAPPPPEAEDAADPDRECVLVDHGDFAESLAVQWDAWEAAATRGGPQALRRRRGRPRDEKAVAVGLPPVEPRSAILYDVAEELLPDVWQRLAPLLAPLLARVAEERKKRPASSAAAAFRGAGAGGGGGGGLGGGSFGGGDFEILTFS | not soluble |
| MFSSSALSYINGFCFSTAGYSPEFCHAVRFVLIEEGALNQDGTPKPNLGYVNDPKDKGGETKGGISKRAFPNIDIAALTLDGIVALYHRYFWKPAYCQDWPASVALYTFDAAVQHGVTNALLMLQEIAGTKADGKVGPATRNAVNSADKEYLCARYGLRRARFYARIIKKDTSQTRFIEGWHNRLVNLTNAAWELQ | soluble |
| MFSVLLSVYYNESPYYFRQSIDSLFNQSLQLAEVVLVKDGELTPELENVITEYTAKYLQIRVVPLKQNQGLGKALNEGLKHCSYDLVARMDTDDIAKPNRFEKQIRVFQEHPELDVVGAWIDEFEETTSNIISTRKLPEVHDDICQFAKKRNPENHPVIMFRKQAVLAAGGYQHFPLFEDYYLWIRMLQNGAKFYNIQESLLYFRFSSAMFKRRGGLKYVTTELRFQNLLRNLEFITFSEYLYNVFIRVITRMMPNSLRAILYKKALRK | not soluble |
| MFTAKLIKGKTYNVMGITFRAGVSQTVPKKLYEYLNENPYFILTQELNNQKDDPINYTESELKGMNKAEHESIISNLGRNPSDFKNADERIAYILKQIDNKGELEHHHHHH | soluble |
| MFVAREHELQVLEKLFTSDSFEMVVLYGRRRVGKTALIDEFVKDKRVLYFTAIQQSAKMNLEDFSRAALSFFGMPDSTPSFGGWSDALSFVAERAAQTDERMVFVFDEFPYAAAAEPALPSMLQIAIDHGFLATKVTMILSGSNEGFMENDVLGRKSPLYGRRTAQIRLLPFDYADAAKFLTNTSPQELVQYYATFGGTPYYLARIQEADGFESNVLRLMFDNLGVLREEPMMLLRQELREPASYYSILQSIAGGNSSPKLIAEHAGVGSDSIGAYLKTLVDLRLIERKVPFGEDPSKSRKGMYVVSDPFFAYWFRFVGRNMSILDGNISEEVTSRLAFGPAFDTYVGQQFETICLQWLIRNNAMGNLPFVATQFGKWWGNDPIAHEQTDIDVIAADSLDKTILFGECKWRNSFNETEAIEKLHQRAGLVRGYQAGNAWLMLFTKNPVSESTRTRYMDDERMVFVSAEELYTALEHHHHHH | not soluble |
| MFVDQVKISLKAGDGGNGITAYRREKYVPFGGPAGGDGGKGASVVFEVDEGLRTLLDFRYQRHFKASKGENGQSSNMHGKNAEDLVLKVPPGTIIKNVETDEVLADLVEDGQRAVVAKGGRGGRGNSRFATPRNPAPDFSEKGEPGEELDVSLELKLLADVGLVGFPSVGKSTLLSIVSKAKPKIGAYHFTTIKPNLGVVSTPDQRSFVMADLPGLIEGASDGVGLGHQFLRHVERTKVIVHMIDMSGSEGREPIEDYKVINQELAAYEQRLEDRPQIVVANKMDLPESQDNLNLFKEEIGEDVPVIPVSTITRDNIDQLLYAIADKLEEYKDVDITVEEEESVGINRVLYKHTPSQDKFTISRDDDGAYVVSGNAIERMFKMTDFNSDPAVRRFARQMRSMGIDDALRERGCKNGDIVRILGGEFEFVE | not soluble |
| MFVDREEELKALNEKLDSNNFEFIVIYGRRRIGKTKLALKSVENREHIYYLAVEGDNLKHFKRYASKVEPTIEYAKEDWEAYFNFLKDKIIIIDEFPNLIKENPNVLSLFQRIVDIHLKNTKTKLIILGSSISMMGEKVLSYKSPLYGRKTGVLKIKPLKFKHLKEFFPKAIWEELVEIYGFADGIPYYLEKVKLPFWDYLDKEIKRVDSFLRYEVDFLMKYEFEEPTTYKKILEAIAFGNHTLGEIKNYLGFKHSDLTPYLKNLIEVEFIERQTPITESVKSKKGRYYIKDNFIAFYFRYIFPNLSAIEEGIFDIEEIKADYNQYLGFVFEKVAKEFLIELNKMNKLPFKFLKIGRWWHRGEEIDLIALNDNDKKALFVEVKWKDLKDRDVKKIYRDLYRKSKLVGLDDYEKYYAIVGKKIESKENGDCLLFDLEDFSLEHHHHHH | soluble |
| MFVRVMKIAQNKKIVTVYPTTTIRKALMTMNENKYRRLPVVNAGNNKVVGIITSMDIVDFMGGGSKYNLIREKHERNFLAAINEPVREIMEENVITLKENADIDEAIETFLTKNVGGAPIVNDENQLISLITERDVIRALLDKIDENEVIDDYITRDVIVATPGERLKDVARTMVRNGFRRLPVVSEGRLVGIITSTDFIKLLGSDWAFNHMQTGNVREITNVRMEEIMKRDVITAKEGDKLKKIAEIMVTNDIGALPVVDENLRIKGIITEKDVLKYFA | soluble |
| MFYAQFVLAKKGPLAKVWLAAHWEKKLTKAQIFETDVPQAIEEVIRPKVKMALRTVGHLLLGIVRIYSKKTRYLLADTNEAYQKMKINFRNGFSFEVDIPENAEIEEDFSNFIDKYNITVPEFHDADYNEQLIMANVSRREDITMKETVNFNVEFNIDADFDGFGDEGESWQLDHLYGSVEPLSLRPTPQPESLMEVERDRDVAANGTEISRIDADSVIFSEGPTRPNLIFDNQEGGNFMPEMNLKVENQTLENDGGVGPADMFSSMIHPVREHAVADVQNDDGMDFDYQPFEPENVEPSRPQSPESFALEPLDVEHMEGRKKRQRKARKLIVDAETMISNDAFREQQEDFSDTMRVVEMAPPTRKMFNLCVSGDLQHLSREPGCKMFNRELLQRYRRCLVTREFDLNYTMQELSDSSSFTPSMEAQAEPWEDLNLNEDIQEDIQAQGPAVDEFFNDVRMDDDDDRQPAQEMDFGDNFDFPQEVEHQECAPIPIQSGFAGENKENEDAEDWSDPFGSSNSSRRGQLEAYGFGNTSTYKEDDGKWAKRAKHILKKVSADIETSGQADFSSVTATAKNRKQAAEQFYSLLTLAKSQAISVDQSEPYGEIVIRPGANFKEACPLSSPKPMGLGNTMENSTMRTPMRPV | not soluble |
| MGAASCEDEELEFKLVFGEEKEAPPLGAGGLGEELDSEDAPPCCRLALGEPPPYGAAPIGIPRPPPPRPGMHSPPPRPAPSPGTWESQPARSVRLGGPGGGAGGAGGGRVLECPSIRITSISPTPEPPAALEDNPDAWGDGSPRDYPPPEGFGGYREAGAQGGGAFFSPSPGSSSLSSWSFFSDASDEAALYAACDEVESELNEAASRFGLGSPLPSPRASPRPWTPEDPWSLYGPSPGGRGPEDSWLLLSAPGPTPASPRPASPCGKRRYSSSGTPSSASPALSRRGSLGEEGSEPPPPPPLPLARDPGSPGPFDYVGAPPAESIPQKTRRTSSEQAVALPRSEEPASCNGKLPLGAEESVAPPGGSRKEVAGMDYLAVPSPLAWSKARIGGHSPIFRTSALPPLDWPLPSQYEQLELRIEVQPRAHHRAHYETEGSRGAVKAAPGGHPVVKLLGYSEKPLTLQMFIGTADERNLRPHAFYQVHRITGKMVATASYEAVVSGTKVLEMTLLPENNMAANIDCAGILKLRNSDIELRKGETDIGRKNTRVRLVFRVHVPQGGGKVVSVQAASVPIECSQRSAQELPQVEAYSPSACSVRGGEELVLTGSNFLPDSKVVFIERGPDGKLQWEEEATVNRLQSNEVTLTLTVPEYSNKRVSRPVQVYFYVSNGRRKRSPTQSFRFLPVICKEEPLPDSSLRGFPSASATPFGTDMDFSPPRPPYPSYPHEDPACETPYLSEGFGYGMPPLYPQTGPPPSYRPGLRMFPETRGTT | soluble |
| MGAGMLGNINDIDLRMLRTFCAIVEAGGFTAAQARLNTSLSRLSVLVRDLEVRLGYSLCRRGNGGFQLTEEGQELYDAALGLFSDIARFREQVRGLGGRDREALHLGCVDGVIGQHCLPLPLAIRLFRQRAPEVLLKLHTRRPDELEHAVLEERLQLAVGAFHHRLSGLYYQPLFREEQNLYCGSAHPFFARADDEPTLGEICAADYVGRGYMAENHRPHDLRFNQGTDAYTMEAIATLVFSGTYIGYLPTHYAATWVAEGRMRAIRPRQLAYDSEFHCITRQGHEERPTLTLFLRSLFEAQKQLGVQVPANTNGIARQL | not soluble |
| MGARGKFDQFDDGKIKLASSLTSKAAANALQTIIEKYNIVKSGKDYPIEITQIAGGYDGGRTDLQTRVSVKDKTNFYNLILNYPDLVSVLARSGMELLFDKVNVDKLEPNFLKFNEQISGVAKSGNYGIPVSLSTDILVLNGPVLHYILNSAKKEEANSQVKSQIKTSQIQAKGSLTIDTDENTKSLWEKIQNSAKANGETNQKGRKAAKSNKTALVQLKNGADTTTNEENKDTKTSDDKVKQTWGDYVEKDDGLKNYTFRASVFENWHDFLDFSTRVAKSFTEKVSNITNKKGTDIQGVLGVDSSPNVLFASVFAAGGGNYENFFYKLKDGRADFSNFKNKGSSYQNLQSVFKDLEHHHHHH | not soluble |
| MGCMNRENALHIVKQQMHEKRYIHTIGVMETAIELAKLYGVDEKKAEMAAIFHDYAKCRAISEMEEIIKREDLPKDLLCYNKELWHAPVGAYLVEKEVGITDSEILQAITYHTSGHENMTMLDKVIYVADYIEPGRKFPGVEEARKLAYTDINQALLFALKRTIQFLMEKDQTIYPLTFQTYNAVIKEEMSK | not soluble |
| MGCTLSAEDKAAVERSKMIDRNLREDGERSRRELKLLLLGTGESGKSTFIKQMRIIHGSGYSDEDKRGFTKLVYQNIFTAMQAMIRAMDTLKIPYKYEHNKAHAQLVREVDVEKVSAFENPYVDAIKSLWNDPGIQECYDRRREYQLSDSTKYYLNDLDRVADPSYLPTQQDVLRVRVPTTGIIEYPFDLQSVIFRMVDVGGQRSERRKWIHCFENVTSIMFLVALSEYDQVLVESDNENRMEESKALFRTIITYPWFQNSSVILFLNKKDLLEEKIMYSHLVDYFPEYDGPQRDAQAAREFILKMFVDLNPDSDKIIYSHFTCATDTENIRFVFAAVKDTILQLNLKEYNLV | soluble |
| MGDELHVIVARSVNVTHKEPPVVPDEQRREMVGALKPVDEAHLGHSEDIFIPIERIEPDIIALGYDQHHDDEQLEAALSARGIDCDICRASPLETEAADRVLSTGRIIDRILDERS | not soluble |
| MGDKQFAVIGLGRFGLAVCKELQDSGSQVLAVDINEDRVKEAAGFVSQAIVANCTHEETVAELKLDDYDMVMIAIGADVNASILATLIAKEAGVKSVWVKANDRFQARVLQKIGADHIIMPERDMGIRVARKMLDKRVLEFHPLGSGLAMTEFVVGSRLMGKTLSDLALCKVEGVQVLGFKRGPEIIKAPDMSTTLEIGDLIIVVGPQDKLANKLKSLEHHHHHH | soluble |

Reference: the DeepSol protein solubility set
